The values that follow come from publication PMC5762634, “Domain swapping and SMYD1 interactions with the PWWP domain of human hepatoma-derived growth factor”.

The data set deals with HDGF PWWP domain (human, UniProt P51858 1-100). The data set can be described thus: size-exclusion chromatography; 5 mM EDTA; SEC: 20 mM Tris-HCl pH 7.5, 5 mM EDTA, 5 mM beta-ME, no added salt; protein:DNA 1:1, incubated overnight at 4 C. The settings on record: protein: recombinant; tags: His tag (pET28a, NdeI/EcoRI, Ni-NTA); chain copies: 2; blunt. A general note: SEC sorts molecules by how far they enter the pores of the column.
Sequence of HDGF PWWP domain (P51858 1-100): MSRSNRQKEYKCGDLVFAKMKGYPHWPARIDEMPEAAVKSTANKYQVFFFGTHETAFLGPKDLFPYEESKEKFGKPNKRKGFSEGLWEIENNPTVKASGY

B1: 5-bp SMYD1 (dsDNA)
DNA 1: CAGGC
DNA 2: GCCTG
In the case of B1, the binding result is on record as “binds”.

B2: 15-bp SMYD1 (dsDNA)
DNA 1: CAGGCTGGTCTTGAA
DNA 2: TTCAAGACCAGCCTG
On to B2, for which the binding result is “binds”.
